Patent US20250179187A1, “ANTI PD-L2 ANTIBODY” (REJUVERON SENESCENCE THERAPEUTICS AG, priority 2022, published 2025)
Positions count from the first letter of the chain named. Blank lines part the entries; values can stand above or below the molecule they belong to.

Legend:
[1] = target: T1, human PD-L2 antigen (Homo sapiens, UniProt Q9BQ51); assay: Single cycle kinetics on Biacore 8K, binding to human PD-L2 antigen; conditions: Table 2, cell culture supernatants
T1 sequence (Q9BQ51 20-273): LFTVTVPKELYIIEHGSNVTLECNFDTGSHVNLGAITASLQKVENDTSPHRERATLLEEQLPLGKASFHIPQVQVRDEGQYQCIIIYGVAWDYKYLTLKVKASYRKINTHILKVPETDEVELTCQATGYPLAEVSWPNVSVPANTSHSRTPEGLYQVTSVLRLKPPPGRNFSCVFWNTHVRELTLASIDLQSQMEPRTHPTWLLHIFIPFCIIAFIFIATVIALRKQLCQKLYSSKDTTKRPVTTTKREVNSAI
Description: Table 2: Single cycle kinetic parameters of chimeric (VH0/VK0) and humanized variants (tested as cell culture supernatants) binding to human PD-L2 antigen as determined using the Biacore 8K. As used herein, the term “KD” is intended to refer to the dissociation equilibrium constant of a particular antibody-antigen interaction, ka is the binding rate constant and kd is the dissociation rate constant. The binding affinity of antibodies of the disclosed invention may be measured or determined by standard antibody-antigen assays. The relative KD was calculated by dividing the KD of the humanized variant by that of the VH0/VK0 assayed in the same experiment.

[2] = target: T1, human PD-L2 antigen; assay: as above; conditions: Table 3; preferred embodiments by Biacore

- kd [1]: 0.00011 s⁻¹
B1: VH1/VK1: humanized anti-PD-L2 variant; SEQ ID NO: 2/SEQ ID NO: 10 (antibody, V domains shown)
VH: QVQLVQSGAELKKPGSSVKVSCKASGYAFSNYFIEWVKQPPGKGLEWIGLNIPGSGGSNYAEKFKGRATITADKSTSTAYMELSSLTSEDSAVYFCARRRLPPDWYFDVWGQGTTVTVSS
VL: DVVMTQSPLSLPVTLGQPASISCRSSQSLVHSDGNTYLHWYQQKPGQPPKLLIYKVSNRFSGVPDRFSGSGSGTDFTLKISRVEAEDVGVYFCSQSTHVPWTFGGGTKVEIK

- kd [1]: 0.000118 s⁻¹
- kd [2]: 0.000118 s⁻¹
B2: VH7/VK2: humanized anti-PD-L2 variant; SEQ ID NO: 7/SEQ ID NO: 11 (antibody, V domains shown)
VH: B1 VH with T87R, S91T, F95Y
VL: B1 VL with F92Y

- kd [1]: 9.72e-05 s⁻¹
- kd [2]: 9.72e-05 s⁻¹
B3: VH0/VK0: chimeric anti-PD-L2 antibody, mouse Fab on human IgG1 backbone; SEQ ID NO: 1/SEQ ID NO: 9 (antibody, V domains shown)
VH: QVQLQQSGAELVRPGTSVKVSCKASGYAFSNYFIEWVKQRPGQGLEWIGLNIPGSGGSNYAEKFKGKATLTADKSSSTAYMQLSSLTSEDSAVYFCARRRLPPDWYFDVWGTGTTVTVSS
VL: B1 VL with S7T, T14S, Q17D, P18Q, Q42L, P48S, V88L, V109L
modifications: human IgG1 constant regions

- kd [1]: 0.000109 s⁻¹
B4: VH1/VK0: anti-PD-L2 variant on hIgG1; SEQ ID NO: 2/SEQ ID NO: 9 (antibody, V domains shown)
VH: B1 VH
VL: B1 VL with S7T, T14S, Q17D, P18Q, Q42L, P48S, V88L, V109L
modifications: human IgG1 constant regions

- kd [1]: 0.000344 s⁻¹
B5: VH7/VK3: humanized anti-PD-L2 variant; SEQ ID NO: 7/SEQ ID NO: 12 (antibody, V domains shown)
VH: B1 VH with T87R, S91T, F95Y
VL: B1 VL with D33G

- kd [1]: 0.000121 s⁻¹
- kd [2]: 0.000121 s⁻¹
B6: VH8/VK2: humanized anti-PD-L2 variant; SEQ ID NO: 8/SEQ ID NO: 11 (antibody, V domains shown)
VH: B1 VH with L11V, T87R, S91T, F95Y
VL: B1 VL with F92Y

- kd [1]: 0.000128 s⁻¹
- kd [2]: 0.000128 s⁻¹
B7: VH6/VK2: humanized anti-PD-L2 variant; SEQ ID NO: 6/SEQ ID NO: 11 (antibody, V domains shown)
VH: B1 VH with L11V, A28S, A68V, T87R, S91T, F95Y
VL: B1 VL with F92Y

- kd [1]: 0.000121 s⁻¹
- kd [2]: 0.000121 s⁻¹
B8: VH6/VK1: humanized anti-PD-L2 variant; SEQ ID NO: 6/SEQ ID NO: 10 (antibody, V domains shown)
VH: B1 VH with L11V, A28S, A68V, T87R, S91T, F95Y
VL: B1 VL

- kd [1]: 0.000132 s⁻¹
B9: VH3/VK2: humanized anti-PD-L2 variant; SEQ ID NO: 4/SEQ ID NO: 11 (antibody, V domains shown)
VH: B1 VH with L11V, A68V, T87R
VL: B1 VL with F92Y

- kd [1]: 0.000113 s⁻¹
B10: VH7/VK1: humanized anti-PD-L2 variant; SEQ ID NO: 7/SEQ ID NO: 10 (antibody, V domains shown)
VH: B1 VH with T87R, S91T, F95Y
VL: B1 VL

- kd [1]: 0.000128 s⁻¹
B11: VH3/VK1: humanized anti-PD-L2 variant; SEQ ID NO: 4/SEQ ID NO: 10 (antibody, V domains shown)
VH: B1 VH with L11V, A68V, T87R
VL: B1 VL

- kd [1]: 0.000122 s⁻¹
B12: VH2/VK2: humanized anti-PD-L2 variant; SEQ ID NO: 3/SEQ ID NO: 11 (antibody, V domains shown)
VH: B1 VH with L11V, T87R
VL: B1 VL with F92Y

- kd [1]: 0.00012 s⁻¹
B13: VH8/VK1: humanized anti-PD-L2 variant; SEQ ID NO: 8/SEQ ID NO: 10 (antibody, V domains shown)
VH: B1 VH with L11V, T87R, S91T, F95Y
VL: B1 VL

- kd [1]: 0.000119 s⁻¹
B14: VH2/VK1: humanized anti-PD-L2 variant; SEQ ID NO: 3/SEQ ID NO: 10 (antibody, V domains shown)
VH: B1 VH with L11V, T87R
VL: B1 VL

- kd [1]: 0.000466 s⁻¹
B15: VH4/VK3: humanized anti-PD-L2 variant; SEQ ID NO: 5/SEQ ID NO: 12 (antibody, V domains shown)
VH: B1 VH with L11V, A68V, T87R, S91T, F95Y
VL: B1 VL with D33G

- kd [1]: 0.000388 s⁻¹
B16: VH8/VK3: humanized anti-PD-L2 variant; SEQ ID NO: 8/SEQ ID NO: 12 (antibody, V domains shown)
VH: B1 VH with L11V, T87R, S91T, F95Y
VL: B1 VL with D33G

- kd [1]: 0.000444 s⁻¹
- kd [2]: 0.000444 s⁻¹
B17: VH6/VK3: humanized anti-PD-L2 variant; SEQ ID NO: 6/SEQ ID NO: 12 (antibody, V domains shown)
VH: B1 VH with L11V, A28S, A68V, T87R, S91T, F95Y
VL: B1 VL with D33G

- kd [1]: 9.88e-05 s⁻¹
B18: VH0/VK1: anti-PD-L2 variant on hIgG1; SEQ ID NO: 1/SEQ ID NO: 10 (antibody, V domains shown)
VH: B3 VH
VL: B1 VL
modifications: human IgG1 constant regions

- kd [1]: 0.000116 s⁻¹
B19: VH1/VK2: humanized anti-PD-L2 variant; SEQ ID NO: 2/SEQ ID NO: 11 (antibody, V domains shown)
VH: B1 VH
VL: B1 VL with F92Y

- kd [1]: 0.000125 s⁻¹
B20: VH4/VK1: humanized anti-PD-L2 variant; SEQ ID NO: 5/SEQ ID NO: 10 (antibody, V domains shown)
VH: B1 VH with L11V, A68V, T87R, S91T, F95Y
VL: B1 VL

- kd [1]: 0.000365 s⁻¹
B21: VH1/VK3: humanized anti-PD-L2 variant; SEQ ID NO: 2/SEQ ID NO: 12 (antibody, V domains shown)
VH: B1 VH
VL: B1 VL with D33G

- kd [1]: 0.000497 s⁻¹
B22: VH3/VK3: humanized anti-PD-L2 variant; SEQ ID NO: 4/SEQ ID NO: 12 (antibody, V domains shown)
VH: B1 VH with L11V, A68V, T87R
VL: B1 VL with D33G

- kd [1]: 0.000414 s⁻¹
B23: VH2/VK3: humanized anti-PD-L2 variant; SEQ ID NO: 3/SEQ ID NO: 12 (antibody, V domains shown)
VH: B1 VH with L11V, T87R
VL: B1 VL with D33G

- kd [1]: 0.000129 s⁻¹
- kd [2]: 0.000129 s⁻¹
B24: VH4/VK2: humanized anti-PD-L2 variant; SEQ ID NO: 5/SEQ ID NO: 11 (antibody, V domains shown)
VH: B1 VH with L11V, A68V, T87R, S91T, F95Y
VL: B1 VL with F92Y
